Laboratory results: article PMC11139282, “Structure and activity of the septal peptidoglycan hydrolysis machinery crucial for bacterial cell division” (PLOS Biology, 2024)

T1: EnvC_(35-420) (E. coli K-12, UniProt P37690 35-419)
T1 construct: Only part of the coiled-coil domain is modelled in the cryo-EM structure; also called ecEnvC; source: E. coli C43(DE3), purified (Ni-NTA, SEC, TEV, Ni-NTA, SEC); not shown: His8, N-terminal, cleaved; SUMO, N-terminal, cleaved; Strep tag II, C-terminal, kept
T1 sequence (looked up): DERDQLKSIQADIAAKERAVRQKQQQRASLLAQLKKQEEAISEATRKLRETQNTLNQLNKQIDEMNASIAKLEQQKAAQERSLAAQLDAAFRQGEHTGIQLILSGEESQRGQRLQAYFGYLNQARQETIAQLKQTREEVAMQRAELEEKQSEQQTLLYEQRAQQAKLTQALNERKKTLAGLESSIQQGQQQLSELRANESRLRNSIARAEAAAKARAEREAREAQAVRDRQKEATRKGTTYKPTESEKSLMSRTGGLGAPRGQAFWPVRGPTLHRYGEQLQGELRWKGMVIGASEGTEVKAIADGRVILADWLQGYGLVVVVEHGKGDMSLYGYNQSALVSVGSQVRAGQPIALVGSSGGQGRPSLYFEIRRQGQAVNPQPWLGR

B1: FtsE^E163Q (natural protein, E. coli K-12, UniProt P0A9R7 1-222, looked up)
chain: MIRFEHVSKAYLGGRQALQGVTFHMQPGEMAFLTGHSGAGKSTLLKLICGIERPSAGKIWFSGHDITRLKNREVPFLRRQIGMIFQDHHLLMDRTVYDNVAIPLIIAGASGDDIRRRVSAALDKVGLLDKAKNFPIQLSGGEQQRVGIARAVVNKPAVLLADQPTGNLDDALSEGILRLFEEFNRVGVTVLMATHDINLISRRSYRMLTLSDGHLHGGVGHE
notes: The pSUMO plasmid adds an N-terminal His8-SUMO-TEV site, removed by TEV; Two copies stand in the FtsEX complex; also called ecFtsE^E163Q; not shown: His8 (chain inferred: first gene of pSUMO-ftsEX), N-terminal, cleaved; SUMO (chain inferred: first gene of pSUMO-ftsEX), N-terminal, cleaved
B2: FtsX (purified alone) (natural protein, E. coli K-12, UniProt P0AC30 1-352, looked up)
chain: MNKRDAINHIRQFGGRLDRFRKSVGGSGDGGRNAPKRAKSSPKPVNRKTNVFNEQVRYAFHGALQDLKSKPFATFLTVMVIAISLTLPSVCYMVYKNVNQAATQYYPSPQITVYLQKTLDDDAAAGVVAQLQAEQGVEKVNYLSREDALGEFRNWSGFGGALDMLEENPLPAVAVVIPKLDFQGTESLNTLRDRITQINGIDEVRMDDSWFARLAALTGLVGRVSAMIGVLMVAAVFLVIGNSVRLSIFARRDSINVQKLIGATDGFILRPFLYGGALLGFSGALLSLILSEILVLRLSSAVAEVAQVFGTKFDINGLSFDECLLLLLVCSMIGWVAAWLATVQHLRHFTPE
notes: FtsX, E. coli K-12; The plasmid section describes pET28a-ftsX (N-terminal 8xHis); the purification section names pSUMO-ftsX (His8-SUMO), tag not removed; Whether SUMO stood on the protein is open; not shown: His8, N-terminal, kept
B3: FtsX^Δ4–18 (natural protein, E. coli K-12, UniProt P0AC30 1-352, looked up)
chain: MNKRFRKSVGGSGDGGRNAPKRAKSSPKPVNRKTNVFNEQVRYAFHGALQDLKSKPFATFLTVMVIAISLTLPSVCYMVYKNVNQAATQYYPSPQITVYLQKTLDDDAAAGVVAQLQAEQGVEKVNYLSREDALGEFRNWSGFGGALDMLEENPLPAVAVVIPKLDFQGTESLNTLRDRITQINGIDEVRMDDSWFARLAALTGLVGRVSAMIGVLMVAAVFLVIGNSVRLSIFARRDSINVQKLIGATDGFILRPFLYGGALLGFSGALLSLILSEILVLRLSSAVAEVAQVFGTKFDINGLSFDECLLLLLVCSMIGWVAAWLATVQHLRHFTPE
notes: FtsX, E. coli K-12, with residues 4-18 deleted; The results call the cryo-EM sample FtsE^E163QX; the methods say that the grids held FtsE^E163QX^Δ4-18; also called ecFtsX

Experiments:
[1] = target: the molecule itself; assay: cryo-EM structure; ATP-bound FtsE^E163QX^Δ4-18-EnvC(35-420) reconstituted in PMAL-C8, about 1 mg/ml, 3.11 Å
EnvC_(35-420) [2] = target: T1, EnvC_(35-420); assay: pull-down + SEC; purified FtsE^E163QX or FtsX incubated with EnvC(35-420)-Strep at a molar ratio of 1:1.5, moved into PMAL-C8; Strep column to remove unbound FtsEX or FtsX, then Superdex 200 in 20 mM Tris pH 8.0, 300 mM NaCl (1 mM ATP for FtsE^E163QX); peak validated by SDS-PAGE; conditions: both partners purified
EnvC_(35-420) [3] = target: T1, EnvC_(35-420); assay: cryo-EM structure; ATP-bound FtsE^E163QX^Δ4-18-EnvC(35-420) reconstituted in PMAL-C8, about 1 mg/ml, 3.11 Å; conditions: both partners purified

Binder | binding result [1] | binding result (EnvC_(35-420) [2]) | binding result (EnvC_(35-420) [3])
B1 | binds | – | –
B2 | – | binds | –
B3 | binds | – | binds
